PMC5109244

Biological target: T1, short mouse DNGR-1 ECD (extracellular domain of the short isoform of mouse DNGR-1) (mouse), Q8BRU4
T1 chain: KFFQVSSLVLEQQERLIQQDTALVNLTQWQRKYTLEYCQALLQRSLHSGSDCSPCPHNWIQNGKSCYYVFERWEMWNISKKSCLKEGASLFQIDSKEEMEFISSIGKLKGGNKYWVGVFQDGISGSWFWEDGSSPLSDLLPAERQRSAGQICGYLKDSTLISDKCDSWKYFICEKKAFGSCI
Assay: non-reducing SDS-PAGE and Western blot; supernatants of 293F cells with FLAG-tagged ECD proteins, Laemmli buffer without reducing agent, HRP-conjugated anti-FLAG detection
Settings: remark: other sources report otherwise

stoichiometry N: 2
B1: short mouse DNGR-1 ECD (extracellular domain of the short isoform of mouse DNGR-1), Q8BRU4 57-238 (domain or fragment)
chain: KFFQVSSLVLEQQERLIQQDTALVNLTQWQRKYTLEYCQALLQRSLHSGSDCSPCPHNWIQNGKSCYYVFERWEMWNISKKSCLKEGASLFQIDSKEEMEFISSIGKLKGGNKYWVGVFQDGISGSWFWEDGSSPLSDLLPAERQRSAGQICGYLKDSTLISDKCDSWKYFICEKKAFGSCI
modifications: here or on the partner: glycosylated (mobility augmented by PNGase F); glycosylated (mobility augmented by PNGase F)
